The chains are these.
B1: Zinc finger protein RFP (Homo sapiens), P14373 (parent)
chain: MASGSVAECLQQETTCPVCLQYFAEPMMLDCGHNICCACLARCWGTAETNVSCPQCRETFPQRHMRPNRHLANVTQLVKQLRTERPSGPGGEMGVCEKHREPLKLYCEEDQMPICVVCDRSREHRGHSVLPLEEAVEGFKEQIQNQLDHLKRVKDLKKRRRAQGEQARAELLSLTQMEREKIVWEFEQLYHSLKEHEYRLLARLEELDLAIYNSINGAITQFSCNISHLSSLIAQLEEKQQQPTRELLQDIGDTLSRAERIRIPEPWITPPDLQEKIHIFAQKCLFLTESLKQFTEKMQSDMEKIQELREAQLYSVDVTLDPDTAYPSLILSDNLRQVRYSYLQQDLPDNPERFNLFPCVLGSPCFIAGRHYWEVEVGDKAKWTIGVCEDSVCRKGGVTSAPQNGFWAVSLWYGKEYWALTSPMTALPLRTPLQRVGIFLDYDAGEVSFYNVTERCHTFTFSHATFCGPVRPYFSLSYSGGKSAAPLIICPMSGIDGFSGHVGNHGHSMETSP

Variants of B1 are the subject of one test. To be noted: with ubp7_human USP7, Q93009.
Chain of ubp7_human USP7, Q93009 (Q93009 whole entry, looked up): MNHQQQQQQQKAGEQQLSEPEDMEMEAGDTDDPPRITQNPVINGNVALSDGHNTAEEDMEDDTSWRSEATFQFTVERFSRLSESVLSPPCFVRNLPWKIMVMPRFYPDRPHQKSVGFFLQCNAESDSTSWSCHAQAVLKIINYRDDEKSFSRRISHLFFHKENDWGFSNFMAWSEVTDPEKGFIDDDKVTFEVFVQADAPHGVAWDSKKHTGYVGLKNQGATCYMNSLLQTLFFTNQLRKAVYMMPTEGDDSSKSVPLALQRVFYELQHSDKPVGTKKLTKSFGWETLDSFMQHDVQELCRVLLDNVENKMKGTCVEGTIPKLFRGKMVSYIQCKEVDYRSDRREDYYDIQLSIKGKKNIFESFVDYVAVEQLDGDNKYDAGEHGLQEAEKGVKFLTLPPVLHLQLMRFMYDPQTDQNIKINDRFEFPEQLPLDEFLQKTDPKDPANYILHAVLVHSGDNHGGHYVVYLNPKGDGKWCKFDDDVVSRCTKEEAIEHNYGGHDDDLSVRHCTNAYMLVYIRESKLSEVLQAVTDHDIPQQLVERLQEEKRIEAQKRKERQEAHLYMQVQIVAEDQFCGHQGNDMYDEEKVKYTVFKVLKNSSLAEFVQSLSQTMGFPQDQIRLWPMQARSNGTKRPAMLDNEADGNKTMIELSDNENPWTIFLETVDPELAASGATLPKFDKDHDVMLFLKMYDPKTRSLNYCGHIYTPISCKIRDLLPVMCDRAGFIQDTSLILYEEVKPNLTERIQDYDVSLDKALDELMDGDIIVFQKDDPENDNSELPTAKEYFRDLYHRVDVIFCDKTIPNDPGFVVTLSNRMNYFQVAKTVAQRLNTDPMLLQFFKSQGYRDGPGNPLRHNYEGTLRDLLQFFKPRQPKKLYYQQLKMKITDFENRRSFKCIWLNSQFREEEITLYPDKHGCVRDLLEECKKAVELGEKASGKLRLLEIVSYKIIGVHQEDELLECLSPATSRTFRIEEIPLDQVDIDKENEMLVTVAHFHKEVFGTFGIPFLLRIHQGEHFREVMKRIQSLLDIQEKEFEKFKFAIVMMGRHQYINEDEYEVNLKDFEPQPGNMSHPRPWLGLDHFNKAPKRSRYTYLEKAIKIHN
For MASGSVAECLQQETTCPVCLQYFAEPMMLDCGHNICCACLARCWGTAETNVSCPQCRETFPQRHMRPNRHLANVTQLVKQLRTERPSGPGGEMGVAEKAREPLKLYCEEDQMPICVVCDRSREHRGHSVLPLEEAVEGFKEQIQNQLDHLKRVKDLKKRRRAQGEQARAELLSLTQMEREKIVWEFEQLYHSLKEHEYRLLARLEELDLAIYNSINGAITQFSCNISHLSSLIAQLEEKQQQPTRELLQDIGDTLSRAERIRIPEPWITPPDLQEKIHIFAQKCLFLTESLKQFTEKMQSDMEKIQELREAQLYSVDVTLDPDTAYPSLILSDNLRQVRYSYLQQDLPDNPERFNLFPCVLGSPCFIAGRHYWEVEVGDKAKWTIGVCEDSVCRKGGVTSAPQNGFWAVSLWYGKEYWALTSPMTALPLRTPLQRVGIFLDYDAGEVSFYNVTERCHTFTFSHATFCGPVRPYFSLSYSGGKSAAPLIICPMSGIDGFSGHVGNHGHSMETSP [C96A;H99A], the “effect of a mutation on the interaction” value is reported as “with no effect”.
On the same count and under the same terms, for MASGSVAECLQQETTCPVCLQYFAEPMMLDCGHNICCACLARCWGTAETNVSCPQCRETFPQRHMRPNRHLANVTQLVRQLRTERPSGPGGEMGVCEKHREPLKLYCEEDQMPICVVCDRSREHRGHSVLPLEEAVEGFKEQIQNQLDHLKRVKDLKKRRRAQGEQARAELLSLTQMEREKIVWEFEQLYHSLKEHEYRLLARLEELDLAIYNSINGAITQFSCNISHLSSLIAQLEEKQQQPTRELLQDIGDTLSRAERIRIPEPWITPPDLQEKIHIFAQKCLFLTESLKQFTEKMQSDMERIQELREAQLYSVDVTLDPDTAYPSLILSDNLRQVRYSYLQQDLPDNPERFNLFPCVLGSPCFIAGRHYWEVEVGDRARWTIGVCEDSVCRKGGVTSAPQNGFWAVSLWYGKEYWALTSPMTALPLRTPLQRVGIFLDYDAGEVSFYNVTERCHTFTFSHATFCGPVRPYFSLSYSGGKSAAPLIICPMSGIDGFSGHVGNHGHSMETSP [K79R;K304R;K380R;K382R] the value was “decreasing interaction strength”; for MASGSVAECLQQETTCPVCLQYFAEPMMLDCGHNICCACLARCWGTAETNVSCPQCRETFPQRHMRPNRHLANVTQLVKQLRTERPSGPGGEMGVCEKHREPLKLYCEEDQMPICVVADRSREARGHSVLPLEEAVEGFKEQIQNQLDHLKRVKDLKKRRRAQGEQARAELLSLTQMEREKIVWEFEQLYHSLKEHEYRLLARLEELDLAIYNSINGAITQFSCNISHLSSLIAQLEEKQQQPTRELLQDIGDTLSRAERIRIPEPWITPPDLQEKIHIFAQKCLFLTESLKQFTEKMQSDMEKIQELREAQLYSVDVTLDPDTAYPSLILSDNLRQVRYSYLQQDLPDNPERFNLFPCVLGSPCFIAGRHYWEVEVGDKAKWTIGVCEDSVCRKGGVTSAPQNGFWAVSLWYGKEYWALTSPMTALPLRTPLQRVGIFLDYDAGEVSFYNVTERCHTFTFSHATFCGPVRPYFSLSYSGGKSAAPLIICPMSGIDGFSGHVGNHGHSMETSP [C118A;H124A], “with no effect”.

The variants in another test derive from B1. To be noted: with ubp7_human USP7, Q93009. This is another data set of the same source.
For MASGSVAECLQQETTCPVCLQYFAEPMMLDCGHNICCACLARCWGTAETNVSCPQCRETFPQRHMRPNRHLANVTQLVRQLRTERPSGPGGEMGVCEKHREPLKLYCEEDQMPICVVCDRSREHRGHSVLPLEEAVEGFKEQIQNQLDHLKRVKDLKKRRRAQGEQARAELLSLTQMEREKIVWEFEQLYHSLKEHEYRLLARLEELDLAIYNSINGAITQFSCNISHLSSLIAQLEEKQQQPTRELLQDIGDTLSRAERIRIPEPWITPPDLQEKIHIFAQKCLFLTESLKQFTEKMQSDMERIQELREAQLYSVDVTLDPDTAYPSLILSDNLRQVRYSYLQQDLPDNPERFNLFPCVLGSPCFIAGRHYWEVEVGDRARWTIGVCEDSVCRKGGVTSAPQNGFWAVSLWYGKEYWALTSPMTALPLRTPLQRVGIFLDYDAGEVSFYNVTERCHTFTFSHATFCGPVRPYFSLSYSGGKSAAPLIICPMSGIDGFSGHVGNHGHSMETSP [K79R;K304R;K380R;K382R], the “effect of a mutation on the interaction” value is listed as “disrupting interaction strength”.
